Measured values published in publication doi:10.1101/2025.05.01.651538.

Molecular target: wild-type unmodified 147bp nucleosome (nucleosome core particle, human histones)
Assay: EMSA
Settings: chain shown with the change; 0-32 µM KDM5A^MutR titrated against 147bp nucleosome

B1: KDM5A^CAT (KDM5A 1–801, minimal catalytically active construct), P29375 R210A; R217A; R219A; R220A; R232A; R264A; R265A; R266A; R271A; R280A; R282A (protein)
chain: MAGVGPGGYAAEFVPPPECPVFEPSWEEFTDPLSFIGRIRPLAEKTGICKIRPPKDWQPPFACEVKSFRFTPRVQRLNELEAMTRVRLDFLDQLAKFWELQGSTLKIPVVERKILDLYALSKIVASKGGFEMVTKEKKWSKVGSRLGYLPGKGTGSLLKSHYERILYPYELFQSGVSLMGVQMPNLDLKEKVEPEVLSTDTQTSPEPGTAMNILPKATAAVKTQSESGDVSANTELKKLQIFGAGPKVVGLAMGTKDKEDEVTAAAKVTNASDAFNMQMAQAKGTLSVNFVDLYVCMFCGRGNNEDKLLLCDGCDDSYHTFCLIPPLPDVPKGDWRCPKCVAEECSKPREAFGFEQAVREYTLQSFGEMADNFKSDYFNMPVHMVPTELVEKEFWRLVSSIEEDVIVEYGADISSKDFGSGFPVKDGRRKILPEEEEYALSGWNLNNMPVLEQSVLAHINVDISGMKVPWLYVGMCFSSFCWHIEDHWSYSINYLHWGEPKTWYGVPSHAAEQLEEVMRELAPELFESQPDLLHQLVTIMNPNVLMEHGVPVYRTNQCAGEFVVTFPRAYHSGFNQGYNFAEAVNFCTADWLPIGRQCVNHYRRLRRHCVFSHEELIFKMAADPECLDVGLAAMVCKELTLMTEEETRLRESVVQMGVLMSEEEVFELVPDDERQCSACRTTCFLSALTCSCNPERLVCLYHPTDLCPCPMQKKCLRYRYPLEDLPSLLYGVKVRAQSYDTWVSRVTEALSANFNHKKDLIELRVMLEDAEDRKYPENDLFRKLRDAVKEAETCASVAQLL
For B1, the Kd was 14 µM.
